The values that follow come from patent US10864269B2, “Therapeutic combinations comprising anti-CD73 antibodies and uses thereof” (MedImmune Limited, priority 2014, dated 2020).

Experiment [1] concerns the target T1, CD73 on the cell surface of MDA-MB-231 cells (Homo sapiens, UniProt P21589).
T1 construct: native CD73 expressed on human, murine, and cynomolgus monkey cell lines; endogenous in cells; host or cells: MDA-MB-231
T1 sequence (P21589 27-549): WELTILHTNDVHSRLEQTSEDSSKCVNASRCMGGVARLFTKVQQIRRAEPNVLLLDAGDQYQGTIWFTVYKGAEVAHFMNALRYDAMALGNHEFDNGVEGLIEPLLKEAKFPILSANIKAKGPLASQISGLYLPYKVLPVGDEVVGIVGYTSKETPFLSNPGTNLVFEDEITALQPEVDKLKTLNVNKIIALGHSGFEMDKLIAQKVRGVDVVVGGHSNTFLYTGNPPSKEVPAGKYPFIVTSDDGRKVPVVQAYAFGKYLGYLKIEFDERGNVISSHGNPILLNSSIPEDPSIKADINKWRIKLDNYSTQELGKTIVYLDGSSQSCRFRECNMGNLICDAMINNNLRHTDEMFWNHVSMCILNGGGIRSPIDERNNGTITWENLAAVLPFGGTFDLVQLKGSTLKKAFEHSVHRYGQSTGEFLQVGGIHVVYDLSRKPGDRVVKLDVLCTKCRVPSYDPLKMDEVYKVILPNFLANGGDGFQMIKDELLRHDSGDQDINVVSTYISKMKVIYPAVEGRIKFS
Nature of the experiment: Antibody-mediated internalization or shedding of CD73 by flow cytometry. Format: cell-based. The conditions noted are these: for Percentage of CD73 remaining on the cell surface: 100 nM antibody, 37° C. The method, then:
Antibody-mediated internalization or shedding of CD73 was assessed by flow cytometry. MDA-MB-231 cells were incubated in presence of 100 nM MEDI9447 or negative control antibody R347 in growth medium at 37° C. for 0-4 hours. Cells were washed and resuspended in ice-cold PBS. The presence of CD73 on the cell surface was detected by adding 10 nM DyLight488-labeled detection antibody. Cells were incubated for 15 minutes, washed and analyzed by flow cytometry. The detection antibody binds to an epitope of CD73 that is different from the MEDI9447 epitope and both antibodies simultaneously bind to CD73 without interference.
(A flow cytometer gives signals particle by particle.)

Experiment [2] concerns the target T2, Murine CD73 ECD (Mus musculus, UniProt Q61503).
T2 construct: made in house; host or cells: mammalian cells
T2 sequence (Q61503 29-551 limits assumed): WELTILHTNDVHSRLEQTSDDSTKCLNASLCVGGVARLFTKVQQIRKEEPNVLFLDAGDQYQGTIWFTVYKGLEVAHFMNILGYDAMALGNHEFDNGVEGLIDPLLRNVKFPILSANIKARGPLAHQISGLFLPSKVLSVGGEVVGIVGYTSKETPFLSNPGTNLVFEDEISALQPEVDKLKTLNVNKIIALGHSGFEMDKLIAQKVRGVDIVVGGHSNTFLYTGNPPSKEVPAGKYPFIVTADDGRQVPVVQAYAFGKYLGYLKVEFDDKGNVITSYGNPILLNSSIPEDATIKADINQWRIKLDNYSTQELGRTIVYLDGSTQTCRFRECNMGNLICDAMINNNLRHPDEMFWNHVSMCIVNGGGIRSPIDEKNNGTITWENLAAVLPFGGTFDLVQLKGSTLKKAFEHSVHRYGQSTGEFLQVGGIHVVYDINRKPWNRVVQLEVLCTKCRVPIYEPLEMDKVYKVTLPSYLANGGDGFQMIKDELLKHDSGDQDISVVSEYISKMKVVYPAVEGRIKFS
The experiment in a line: Surface plasmon resonance (ProteOn), murine CD73. In kind it is binding. The conditions noted are these: SPR. The procedure: A ProteOn XPR36 instrument was used to characterize binding of MEDI9447 to human, murine, and cynomolgus CD73 ECD. MEDI9447 was affinity-captured using an anti-human Fc antibody. CD73 ECD was in the mobile phase. The association and dissociation of CD73 to MEDI9447 could be accurately described with the Langmuir 1:1 model.
The affinity of enhanced anti-CD73 antibodies (in IgG1-TM format) to human, murine, and cynomolgus CD73 was determined by flow cytometry and surface plasmon resonsance (SPR) (Table 13). The enhanced antibodies had pM affinity to cellular and recombinant CD73 from the three species.
(In SPR one partner is held on a chip, and binding of the other changes the refractive index at the surface.)

Experiment [3] addresses cynomolgus CD73. The experiment in a line: Solution binding, cynomolgus CD73. The conditions noted are these: as measured by solution binding.
Experiment [4] has as its system 4T1 cells. The experiment in a line: FabZAP antibody internalization assay, 4T1. The conditions noted are these: 4T1, 3 days. Format: cell-based, murine. The method, then:
Internalization of MEDI9447 into cell lines MDA-MB-231 (human mammary carcinoma) and 4T1 (murine mammary carcinoma) was assessed using a human Antibody Internalization Kit that is sold commercially as the FabZAP assay (Advanced Targeting Systems, San Diego Calif.). Serial dilutions of MEDI9447 or negative control antibody R347 were pre-incubated with 40 nM FabZAP reagent (Fab fragment of a polyclonal anti-human IgG antibody conjugated to the cytotoxic protein saporin) and then added to the cell lines. After 3 days in culture, cell proliferation was measured using a luminescent cell viability assay sold commercially as the CELLTITER-GLO® assay (Promega, Madison Wis.). This assay was used to calculate EC50 values and maximum toxicity. […]
Cell proliferation of MDA-MB-231 cells and 4T1 cells treated with serial dilutions of test antibody and FabZAP reagent was measured by CELLTITER-GLO® assay (FIG. 2). The signal from the negative control antibody R347 in the CELLTITER-GLO® assay was subtracted from the signal of MEDI9447 and the EC50 value and maximum toxicity were calculated by fitting the dose-response curve using non-linear regression analysis.
1,000 cells/well were cultured in 96 well plates in RPMI/10% FBS. […] After 3 days incubation at 37C, the cell proliferation was measured using the CELLTITER-GLO® assay (Promega, Madison Wis.).

“MEDI9447: IgG1 with CD730010-derived VL of SEQ ID NO: 68 and VH of SEQ ID NO: 82”: the “Percentage of CD73 remaining on the cell surface” value in experiment [1] (0 h) stood at 100%; in experiment [1] (0.25 h), 90%; in experiment [1] (0.5 h), 90%; in experiment [1] (1 h), 87%; in experiment [1] (2 h), 80%; in experiment [1] (4 h) it was 73%. Besides, in experiment [1] (4 hours incubation), the “CD73 either internalized or shed upon antibody binding” value was determined as 27%. The ka in experiment [2] was 2.41e+06 M⁻¹ s⁻¹. Further, the kd in experiment [2] was 2.32e-06 s⁻¹. Besides, the Kd – broadly, the free concentration of one partner at which half of the binding sites on the other are occupied at equilibrium, for simple one-to-one binding – in experiment [3] is ~0.09 nM. Besides, the maximum toxicity in experiment [4] is 97%.
